Data: US20260184782A1 (TWIST BIOSCIENCE, published 2026)

What follows are binders tested against T1, recombinant human TIGIT (human, UniProt Q495A1 22-141, limits assumed) (assay: SPR Carterra, average).
T1 construct: recombinant human TIGIT used in Carterra SPR; also called hTIGIT
T1 sequence (looked up): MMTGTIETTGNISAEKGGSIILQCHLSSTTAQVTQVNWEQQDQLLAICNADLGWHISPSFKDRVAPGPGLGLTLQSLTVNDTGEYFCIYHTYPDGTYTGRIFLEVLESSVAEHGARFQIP
Description: Binding affinities of VHH-Fc proteins to recombinant human TIGIT were measured by SPR using a Carterra instrument (Table 10A). […] Average values reported from measurements from 1-2 samples.

Row | Binder | Kd [nM] | koff [s⁻¹] | kon [M⁻¹ s⁻¹]
1 | TIGIT-SC169 (Fc fusion, VHH-Fc fusion in assay) VHH: EVQLVESGGGLVQPGGSLRLSCAASGFTLNDYAMGWFRQAPGKERELVAWIARYDGSTLYADSVKGRFTISADNSKNTAYLQMNSLKPEDTAVYYCTTELRWELQQPDYWGQGTLVTVSS | 978 | 0.206 | 211000
2 | TIGIT-SC121 (Fc fusion, VHH-Fc fusion in assay) VHH: EVQLVESGGGLVQPGGSLRLSCAASGFTFSPSWMGWFRQAPGKEREWVASVLRGGYTWYADSVKGRFTISADNSKNTAYLQMNSLKPEDTAVYYCTTEGFDPWGQGTLVTVSS | 4.68 | 0.00112 | 344000
3 | TIGIT-SC188 (Fc fusion, VHH-Fc fusion in assay) VHH: EVQLVESGGGLVQPGGSLRLSCAASGNTFSGGFMGWFRQAPGKEREWVASVLRGGYTWYADSVKGRFTISADNSKNTAYLQMNSLKPEDTAVYYCTTDSLPGWGQGTLVTVSS | 77.1 | 0.00309 | 42500
4 | TIGIT-SC187 (Fc fusion, VHH-Fc fusion in assay) VHH: EVQLVESGGGLVQPGGSLRLSCAASGFTFSPSWMGWFRQAPGKEREWVASVLRGGYTWYADSVKGRFTISADNSKNTAYLQMNSLKPEDTAVYYCTTDSLPGWGQGTLVTVSS | 17.2 | 0.000586 | 34000
5 | TIGIT-SC60 (Fc fusion, VHH-Fc fusion in assay) VHH: EVQLVESGGGLVQPGGSLRLSCAASGFTFSPSWMGWFRQAPGKEREWVASVLRGGYTWYADSVKGRFTISADNSKNTAYLQMNSLKPEDTAVYYCARDDLDYWGQGTLVTVSS | 84.6 | 0.00184 | 21800
6 | TIGIT-SC111 (Fc fusion, VHH-Fc fusion in assay) VHH: EVQLVESGGGLVQPGGSLRLSCAASGDTFSGGFMGWFRQAPGKEREWVASVLRGGYTWYADSVKGRFTISADNSKNTAYLQMNSLKPEDTAVYYCTRGGMDVWGQGTLVTVSS | 4.37 | 0.00743 | 1.7e+06
7 | TIGIT-SC98 (Fc fusion, VHH-Fc fusion in assay) VHH: EVQLVESGGGLVQPGGSLRLSCAASGNTFSGGFMGWFRQAPGKEREWVASVLRGGYTWYADSVKGRFTISADNSKNTAYLQMNSLKPEDTAVYYCTTEGFDPWGQGTLVTVSS | 5.79 | 0.00137 | 237000
8 | TIGIT-SC24 (Fc fusion, VHH-Fc fusion in assay) VHH: EVQLVESGGGLVQPGGSLRLSCAASGFTFDRSWMGWFRQAPGKEREVVASITSGGSTYYADSVKGRFTISADNSKNTAYLQMNSLKPEDTAVYYCAADVWYGSTWRNWGQGTLVTVSS | 3.08 | 0.000894 | 506000
9 | TIGIT-SC117 (Fc fusion, VHH-Fc fusion in assay) VHH: EVQLVESGGGLVQPGGSLRLSCAASGNTFSGGFMGWFRQAPGKEREWVASVLRGGYTWYADSVKGRFTISADNSKNTAYLQMNSLKPEDTAVYYCDAADYWGQGTLVTVSS | 9.63 | 0.0012 | 125000
10 | TIGIT-SC115 (Fc fusion, VHH-Fc fusion in assay) VHH: EVQLVESGGGLVQPGGSLRLSCAASGNTFSGGFMGWFRQAPGKEREWVASVLRGGYTWYADSVKGRFTISADNSKNTAYLQMNSLKPEDTAVYYCAGTGLWGQGTLVTVSS | 8.42 | 0.00241 | 262000
11 | TIGIT-SC116 (Fc fusion, VHH-Fc fusion in assay) VHH: EVQLVESGGGLVQPGGSLRLSCAASGFTFSPSWMGWFRQAPGKEREWVASVLRGGYTWYADSVKGRFTISADNSKNTAYLQMNSLKPEDTAVYYCDAADYWGQGTLVTVSS | 4.08 | 0.000696 | 209000
12 | TIGIT-SC57 (Fc fusion, VHH-Fc fusion in assay) VHH: EVQLVESGGGLVQPGGSLRLSCAASGNTFSGGFMGWFRQAPGKEREWVASVLRGGYTWYADSVKGRFTISADNSKNTAYLQMNSLKPEDTAVYYCTTYRGWGQGTLVTVSS | 25.2 | 0.00511 | 149000
13 | TIGIT-SC54 (Fc fusion, VHH-Fc fusion in assay) VHH: EVQLVESGGGLVQPGGSLRLSCAASGFSFDDYVMGWFRQAPGKERELVAVIVGEAITRYADSVKGRFTISADNSKNTAYLQMNSLKPEDTAVYYCARRGGSGRAFDIWGQGTLVTVSS | 3.71 | 0.00982 | 3e+06
14 | TIGIT-SC13 (Fc fusion, VHH-Fc fusion in assay) VHH: EVQLVESGGGLVQPGGSLRLSCAASGRTFSFMGWFRQAPGKEREWVASVLRGGYTWYADSVKGRFTISADNSKNTAYLQMNSLKPEDTAVYYCATESMDYWGQGTLVTVSS | 3.08 | 0.000199 | 60100
15 | TIGIT-SC46 (Fc fusion, VHH-Fc fusion in assay) VHH: EVQLVESGGGLVQPGGSLRLSCAASGRTFSNYVMGWFRQAPGKERELVASISSFGSTYYADSVKGRFTISADNSKNTAYLQMNSLKPEDTAVYYCARSGGFLSDWGQGTLVTVSS | 4.45 | 0.00416 | 1.01e+06
16 | TIGIT-SC31 (Fc fusion, VHH-Fc fusion in assay) VHH: EVQLVESGGGLVQPGGSLRLSCAASGRAFESYAMGWFRQAPGKERELVATIGWSGTDYADSVKGRFTISADNSKNTAYLQMNSLKPEDTAVYYCAKGYTSGLSDWGQGTLVTVSS | 4.74 | 0.0062 | 1.31e+06
17 | TIGIT-SC20 (Fc fusion, VHH-Fc fusion in assay) VHH: EVQLVESGGGLVQPGGSLRLSCAASGNTFSGGFMGWFRQAPGKEREWVASVLRGGYTWYADSVKGRFTISADNSKNTAYLQMNSLKPEDTAVYYCATPRGYWGQGTLVTVSS | 2.7 | 0.0007 | 260000
18 | TIGIT-SC84 (Fc fusion, VHH-Fc fusion in assay) VHH: EVQLVESGGGLVQPGGSLRLSCAASGGTFTIYPMGWFRQAPGKEREWVAGINEYGGRYADSVKGRFTISADNSKNTAYLQMNSLKPEDTAVYYCARDLNAMGDAYDIWGQGTLVTVSS | ≤ 3.15 | ≤ 1e-05 | 3180
19 | TIGIT-SC51 (Fc fusion, VHH-Fc fusion in assay) VHH: EVQLVESGGGLVQPGGSLRLSCAASGRTEANYAMGWFRQAPGKEREFVAAISWDGGATAYADSVKGRFTISADNSKNTAYLQMNSLKPEDTAVYYCGDYEGHWGQGTLVTVSS | 5.15 | 0.00981 | 2.1e+06
20 | TIGIT-SC68 (Fc fusion, VHH-Fc fusion in assay) VHH: EVQLVESGGGLVQPGGSLRLSCAASGHTFRGYAMGWFRQAPGKEREAVAAISWSGDNTYYADSVKGRFTISADNSKNTAYLQMNSLKPEDTAVYYCGDYEGHWGQGTLVTVSS | 5.49 | 0.0103 | 1.87e+06
21 | TIGIT-SC25 (Fc fusion, VHH-Fc fusion in assay) VHH: EVQLVESGGGLVQPGGSLRLSCAASGNTFSGGFMGWFRQAPGKEREWVASVLRGGYTWYADSVKGRFTISADNSKNTAYLQMNSLKPEDTAVYYCTTVGYGDYWGQGTLVTVSS | 22.5 | 0.00174 | 77200
22 | TIGIT-SC200 (Fc fusion, VHH-Fc fusion in assay) VHH: EVQLVESGGGLVQPGGSLRLSCAASGNTFSGGFMGWFRQAPGKEREWVASVLRGGYTWYADSVKGRFTISADNSKNTAYLQMNSLKPEDTAVYYCTRDGGFDPWGQGTLVTVSS | 5.34 | 0.00143 | 290000
23 | TIGIT-SC201 (Fc fusion, VHH-Fc fusion in assay) VHH: EVQLVESGGGLVQPGGSLRLSCAASGFTFSPSWMGWFRQAPGKEREWVASVLRGGYTWYADSVKGRFTISADNSKNTAYLQMNSLKPEDTAVYYCTRDGGFDPWGQGTLVTVSS | 1590 | 0.000901 | 567
24 | TIGIT-SC191 (Fc fusion, VHH-Fc fusion in assay) VHH: EVQLVESGGGLVQPGGSLRLSCAASGFVFSSDWMGWFRQAPGKEREWVASVLRGGYTWYADSVKGRFTISADNSKNTAYLQMNSLKPEDTAVYYCARGDSMDVWGQGTLVTVSS | 401 | 0.125 | 313000
25 | TIGIT-SC203 (Fc fusion, VHH-Fc fusion in assay) VHH: EVQLVESGGGLVQPGGSLRLSCAASGFTFSPSWMGWFRQAPGKEREWVASVLRGGYTWYADSVKGRFTISADNSKNTAYLQMNSLKPEDTAVYYCARDRGGSDWGQGTLVTVSS | 914 | 0.14 | 153000
26 | TIGIT-SC42 (Fc fusion, VHH-Fc fusion in assay) VHH: EVQLVESGGGLVQPGGSLRLSCAASGNTFSGGFMGWFRQAPGKEREWVATVLRGGYTWYADSVKGRFTISADNSKNTAYLQMNSLKPEDTAVYYCASGGFLASWGQGTLVTVSS | 1400 | 0.197 | 141000
27 | TIGIT-SC171 (Fc fusion, VHH-Fc fusion in assay) VHH: EVQLVESGGGLVQPGGSLRLSCAASGFTFDRSWMGWFRQAPGKEREWVASVLRGGYTWYADSVKGRFTISADNSKNTAYLQMNSLKPEDTAVYYCATERRLGVWGQGTLVTVSS | 51 | 0.00441 | 90200
28 | TIGIT-SC195 (Fc fusion) VHH: EVQLVESGGGLVQPGGSLRLSCAASGFAFSSDWMGWFRQAPGKEREWVASVLRGGYTWYADSVKGRFTISADNSKNTAYLQMNSLKPEDTAVYYCARGEGFDYWGQGTLVTVSS | 478 | 0.142 | 296000
29 | TIGIT-SC198 (Fc fusion, VHH-Fc fusion in assay) VHH: EVQLVESGGGLVQPGGSLRLSCAASGFTFSPSWMGWFRQAPGKEREYVASVLRGGYTWYADSVKGRFTISADNSKNTAYLQMNSLKPEDTAVYYCASEGDPDYWGQGTLVTVSS | 27.6 | 0.00285 | 103000
